Laboratory results published in patent publication US20240173352A1 (A2 BIOTHERAPEUTICS, published 2024).

Target: HLA-A*02 (on target cells) (human)
Experiment: cell-based or functional assay

EC50 right shift of the NY-ESO-1 TCR by 50 uM HA-1(H) peptide: ~30 fold
Binder: VLHDDLLEA [HA-1(H) peptide]
